± gives the uncertainty stated by the source.

The data set can be described thus: amyloid nucleation score (Sup35N fusion, yeast selection) (log enrichment); library NNK1; higher = more nucleation; inactive = no reads after selection. The gist of the method:
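Nucleation score: DiMSum log enrichment of output over input reads, centred on the mode score of non-aggregating sequences. Only sequences with at least 100 input reads were kept. Reads came from Illumina sequencing of plasmid inserts before and after 7 days of growth at 30°C without adenine and uracil, in psi-negative yeast expressing Sup35N fused to peptides of 20 random codons after 24 hours of induction with 100 μM copper sulfate.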
Regarding EDNWHLRVQ, the amyloid nucleation score was determined as 0.088 ± 0.29. Then EEYNVNCTSFVGRFSRC, with -0.008 ± 0.5. As for EFFRVMPGNT, the figure is 3.68 ± 0.13; as for EFVLGGASRVELY, -0.624 ± 0.64. Then EFYSVTIGNWAMNRTHWRVN, with 0.461 ± 0.69; and EFYYMKLRYRVRRKF, with -0.716 ± 0.45. Consider EGHWGFWPIGSFTCTSFLVY, for which the amyloid nucleation score stood at 0.86 ± 0.58. As for EGLLFYEYSSMCVEKDWIKN, the figure is -0.136 ± 0.43. Then EGLNNSLSSYTKDWAQVVLN, with -0.079 ± 0.32; and EGTSPHMHSIRFTLSQLPSF, with 0.236 ± 1.1. Then EGVNYIMKDVLLVDTKVAEN, with -0.175 ± 0.66; and EHLLCVSRCMLSSNLVTNCA, with -0.113 ± 0.94; and EHRLR, with 0.477 ± 0.59. For the substance EIMKCFNFTHMVEMKSMKRN, the amyloid nucleation score is 2.62 ± 0.087. EIQGNLNILSLLGLSRRSKG yielded an amyloid nucleation score of 0.016 ± 0.72. As for EIRKNTASMIMKLCIYIVGA, the figure is -0.007 ± 0.45. In turn, EIVACSWKKELIRAW registered an amyloid nucleation score of -0.209 ± 0.38. As for EIWWMVKVQLSVEYSSGNRL, the amyloid nucleation score came out at 1.16 ± 0.39. As for EKLNFSNLEGFRGFRLKGSR, the figure is -0.271 ± 1.4; as for ELGPRPHTFLEFAGICVGGM, -0.422 ± 1.4; as for ELKSPCNVSPIWSRSRQTST, 0.216 ± 0.68. Then ELLACGIKRRVVKTGVRTAY, with -0.407 ± 1.2; and ELNPMFKTQHWLNSWNIWLL, with 2.47 ± 0.089.

ELRSIDTWYPASGCML came in with an amyloid nucleation score of -0.187 ± 0.29.

Substance ELSDTVFRRVCNLIVMVTPV returned an amyloid nucleation score of 1.05 ± 0.4. As for ELVISMGRLWVG, the figure is 2.02 ± 0.17; as for ELVLSSSWFRRNSYALCKLR, 0.716 ± 1. Substance EMAFISYH returned an amyloid nucleation score of 0.4 ± 1.1. Then ENIALIYLECVFKVGSRCFE, with 0.198 ± 0.24; and ENQPVPLQDLKGAV, with -0.352 ± 1.2; and ERLFELKCPNFCAELGSDS, with 0.24 ± 0.41. ERMGDSQGPKAGLWSFKYP registered an amyloid nucleation score of -0.226 ± 0.97. For the substance ERQLKEEY, the amyloid nucleation score worked out at 0.06 ± 0.33. For the substance ESAFHASVGALRMHTSSRVC, the amyloid nucleation score came to 1.09 ± 0.35.

For ESDPGCPVAVIKGPCT, the amyloid nucleation score was found to be 0.225 ± 0.8. As for ESNMGNGSRGIDV, the figure is 0.821 ± 1.1; as for ESTAQSEV, -0.237 ± 0.42.

In turn, ESVIFFSCTYSSMMVSWTSR yielded an amyloid nucleation score of 0.382 ± 1.4. ETARLCRWSYK had an amyloid nucleation score of 2.22 ± 0.18. As for ETGSDEI, the amyloid nucleation score was -0.55 ± 0.39.

ETSSPLLEGG: the amyloid nucleation score is 0.554 ± 0.55. Then EVAMVYFKCVLFITSDSKQR, with -0.823 ± 1.1.

The substance EVDFNSSFTWSHMSSKCRMF had an amyloid nucleation score of -0.046 ± 0.54. Then EVGMHNMACADSSVCMRSVL, with 0.472 ± 0.6. As for EYAVIGKS, the figure is -0.186 ± 1; as for EYFRSTCRRATLSDPSMMHH, 0.185 ± 0.35; as for EYGLVRTLPVFRRVRRKYVG, -0.666 ± 0.67. Consider EYGVSLV, for which the amyloid nucleation score is 0.089 ± 0.53.

Turning to EYIYNIAEWVD, the amyloid nucleation score is -1.05 ± 0.79. EYLFCCVCADLFNTWDKSLG returned an amyloid nucleation score of 7.29 ± 0.052.

On to EYLSMNRLRERSYYLGNRTF, for which the amyloid nucleation score came to 0.077 ± 0.69. With EYNYLDDTCWLGQVGRWLWF, the amyloid nucleation score was found to be 1.38 ± 0.28. As to EYRTSSEQTANTFILKPRWA, the amyloid nucleation score came to 1.72 ± 0.4.

On to EYVACVIEDFSVLNVVRQVD, for which the amyloid nucleation score was -0.33 ± 0.21. As for FADIKYLSTFG, the figure is -0.045 ± 0.37; as for FAESSVVSFHLCRQMFASTA, -0.88 ± 0.52. Substance FAHHLYINRMSRFIDARVTI returned an amyloid nucleation score of 2.37 ± 0.13. FALKIVGVVPVAVGMTIDDW yielded an amyloid nucleation score of 0.052 ± 0.85. Then FAQFSAWRTTNGRYKHHFTL, with -0.256 ± 0.52. Then FASRNISG, with -0.054 ± 0.5. Then FASVDTRETSSGMGGISKTG, with -0.742 ± 0.56; and FAVSIVSFLRASVVDWVWYT, with -0.209 ± 0.66.

FCAEEGVTRLNPKL showed an amyloid nucleation score of -0.023 ± 0.47. FCDPVYMPSERFWNAYMCTL returned an amyloid nucleation score of 1.19 ± 0.9. Substance FCFILSNVFLGLWMI returned an amyloid nucleation score of -1.37 ± 2.7. As for FCLIFDGC, the entry is “inactive”; as for FCLNHHMVLYSIRRWNVFVY, -2.16 ± 2.7. As for FCMTTSVSSNTLV, the figure is -0.013 ± 0.94. For the substance FCNWANLYGTWLMLCVGSGR, the amyloid nucleation score worked out at 0.712 ± 0.42. Then FCSRTRMTICVLCYIHLQGR, with 0.521 ± 0.29; and FCVSQVFRDLS, with -0.315 ± 0.37; and FDADGHPLKTPLCMGLSCGG, with -0.129 ± 1.6.

The substance FDFTNGRISFAFCNNSCCPY displayed an amyloid nucleation score of 2.46 ± 0.34.

The substance FDLTLCICCLRSECYYITPR returned an amyloid nucleation score of 8.732 ± 0.049. Then FDLVYACANPTFGINVRTGR, with 2.67 ± 0.12; and FDLWLVYVRLPGSHDLDLRA, with 0.61 ± 0.65; and FDNAPMSDLG, with 0.405 ± 0.72. As for FDNLIVYVTVYFFLTYAPFV, the figure is 1.41 ± 0.26; as for FDSLNAYSLSPSMVMKDSRG, 0.17 ± 0.18. As for FDSVESRTAPTRMILLRTLF, the entry is “inactive”; as for FEHVPLFTTMPIEEFYRIVY, 0.262 ± 0.28; as for FENFVASFLPNFGITLRKGQ, 0.043 ± 0.24. In the case of FENIDLP, the amyloid nucleation score is -0.364 ± 0.62. As for FETYFEHYWGCVTYSSMFWS, the figure is 2.45 ± 0.14; as for FFALIYI, 0.357 ± 0.36. On to FFFRKTSY, for which the amyloid nucleation score was 0.552 ± 0.87. As for FFGFMILNYKFSK, the entry is “inactive”; as for FFGVLNIPNFCVSMF, 0.645 ± 0.69. Then FFHFTVSGMPGYSRSY, with 2.73 ± 0.17; and FFLTDITTLHYQSRNRLFLT, with -0.581 ± 0.23; and FFNDPA, with -0.311 ± 0.47. The substance FFNRTKTHEVDADGALSTL yielded an amyloid nucleation score of 0.508 ± 0.88. Then FFRRDFFFYNSLGMH, with 0.233 ± 1.4; and FFYSNALLWSWIVGYSCTRL, with 0.537 ± 0.44; and FGASIGDGDFRVM, with 0.069 ± 0.53. Then FGCSSLCTLSTVEE, with -1.21 ± 0.64; and FGDGIDSNVSMVEN, with “inactive”. As for FGHKCAIFGNWEF, the figure is -0.933 ± 0.84; as for FGHYFDTLKPYSRALWRVVS, -0.641 ± 0.61; as for FGLKYRSDGVPCPDYLARKY, 0.702 ± 0.51.

The substance FGLRFAHAHLINWPWMLSGS showed an amyloid nucleation score of 0.047 ± 0.76. On to FGNRDFSQSDYNSCVFATGS, for which the amyloid nucleation score was 2.2 ± 0.44. As for FGSLRHCFTFNCNPGMGVWV, the figure is 2.53 ± 0.16; as for FGSSPRSDVVKHQNINEEVI, 0.581 ± 0.61; as for FHLWHLIVYILALY, -0.955 ± 0.77.

On to FHNRINKPTK, for which the amyloid nucleation score entry was “inactive”. As for FHPAMVVICILWHKR, the figure is 1.62 ± 0.37; as for FICERPGSRKTTLPTVTVIR, -0.499 ± 0.98. The substance FIGPRN returned an amyloid nucleation score of -1.05 ± 1.2. As for FINRGAGPTLSRGQSRYNSA, the figure is 0.011 ± 0.3; as for FIRIVRIYSLEFALYLGVFQ, 4.51 ± 0.05; as for FIVKKFIKSNRLVLMRGSPL, 0.669 ± 0.49.

FIWIGRKRRGGICCDEWKYG showed an amyloid nucleation score of 0.196 ± 1.6.

FIWSLVGAQAQSTNRVHHLS returned an amyloid nucleation score of 1.3 ± 0.67. Then FKCKSDAPWPWLHSL, with 1.37 ± 0.45; and FKLMWNFQDLLVLLLRDRRY, with 0.048 ± 0.62. As for FKLVI, the figure is 0.697 ± 0.9.

FKSASVRRI gave an amyloid nucleation score of -0.822 ± 0.84.

In turn, FLACGYMFGFRQSYHRPFRF gave an amyloid nucleation score of 3.35 ± 0.095. Then FLAYLPSEKC, with -0.267 ± 0.44. Take FLEFVWRALEM: the amyloid nucleation score was -1.16 ± 0.86.

The substance FLFACFMRVAL showed an amyloid nucleation score of 1.46 ± 0.24. As for FLFLTRRWEFVHMLPVSCEV, the figure is -0.817 ± 2.4; as for FLHRM, 0.062 ± 0.75; as for FLILVSLGELGVTAI, “inactive”. Then FLMDNDKIHYGYISSVCTSY, with “inactive”; and FLMKMKMSVFVLEYSILECM, with -1.12 ± 1.1. As for FLMYFQNRV, the figure is 0.624 ± 0.33; as for FLNVARQV, 0.101 ± 1.4; as for FLNYVMDVLGGRIRDVWWFT, 0.829 ± 0.66. For the substance FLPGQNAIFKTLLVCSTVKV, the amyloid nucleation score was -0.675 ± 1.2. Then FLPLMIASVSWRL, with 0.455 ± 0.64; and FLRALCSVGSRHTTPAFDYG, with 0.351 ± 0.43; and FLRVILRVYLAVLRGNRQCN, with -0.716 ± 0.36. On to FLVWIMGSFPTGRGANRRNS, for which the amyloid nucleation score was -0.465 ± 0.51. Then FLWIA, with -0.012 ± 0.56; and FLYSSLFDKVNCCNRPPVSS, with -0.014 ± 0.7; and FMCVGSYDPYPWP, with 0.659 ± 0.51. As for FMDKVFSIP, the figure is -0.101 ± 0.78. As for FMGIGPDVEDLLW, the figure is -0.538 ± 0.41; as for FMLSFDTTFPLKVLIRTSPE, -0.858 ± 0.85.

Source of the values: the supplement of paper PMC12042874.
